In the supplement of paper PMC9170038:

Tested on: MS2 coat protein
Assay: apparent KD of MS2 coat protein; designed switch direction (-1 OFF switch, 1 ON switch): -1; higher = weaker reporter binding
How it was run: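 The buffer was Tris-HCl pH 7.5 with KCl, MgCl2, BSA, DTT, tRNA and Tween-20. In it, SNAP-549-labelled MS2 coat protein was titrated in doubling steps from 0.7 or 1.5 nM to 3 µM over chip-bound RNA switches transcribed by stalled E. coli RNA polymerase on Illumina chips. Apparent KD is the per-design median over clusters of curve fits to normalised fluorescence.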

[1] = input ligand: microRNA oligo, concentration not stated
[2] = Eterna round: R95, input ligand: FMN 200 uM
[3] = Eterna round: R95, input ligand: microRNA oligo, concentration not stated
[4] = Eterna round: R95, input ligand: none

Sequence | apparent KD of MS2 coat protein [1] | apparent KD of MS2 coat protein [2] | apparent KD of MS2 coat protein [3] | apparent KD of MS2 coat protein [4] | apparent KD of MS2 coat protein (input ligand: FMN 200 uM) | apparent KD of MS2 coat protein (input ligand: none)
UUGUUAUGUGUAGGAUAUGCAUAUUAUUAUUAUGCAGAAGGACAUGAGGAUCACCCAUGUGUAUUAUUAUUAUAUAUUAUAUAU [Title] (Eterna round: R96, puzzle: Exclusion NG 1) | 17.2 nM | – | – | – | – | –
UAAGAAGGUGUUAGGAUAUGCAGAGCAGGGCUAAGGCAGAAGGGACAUGAGGAUCACCCAUGUGCUACGGGUGC [Enrainbera] (puzzle: Brourd's mod of Exclusion 4) | – | 51.2 nM | 37.2 nM | 35.9 nM | – | –
CCGCUCCGUGUAGGAUAUCGGUGUACCCUGCGCCGAGAAGGACAUGAGGAUCACCCAUGUAUGUUAUUAUCACGCGUGGCGCAC [Design 73] (Eterna round: R96, puzzle: Exclusion NG 1) | 18.9 nM | – | – | – | 37.7 nM | 37.7 nM
AAACGGCAGGGAGGAUAUGCUUACCUGGGUCGUCUUCGAACAUGAGGAUCACCCAUGUAGUCGACGCAGAAGGCCCUCAAAGCC [JL ViennaUCT Ontiis mod 2] (Eterna round: R96, puzzle: Exclusion NG 2) | 17.1 nM | – | – | – | 47.4 nM | 21.5 nM
AAAAUAAAGAUGCCUUUAAACAUGAGGAUCACCCAUGUGAGUAAGGAUAUCGGAACCAAUCGCGACGAGAAGGUACUCGCGUGU [Relela] (Eterna round: R96, puzzle: Exclusion NG 3) | 11.1 nM | – | – | – | 12.1 nM | 15.7 nM
GUAAAGUGAGGAUAUGGUGAGUAGUGCCUGAGCGCUGCUCACCAGAAGGCACAUGAGGAUCACCCAUGUAUAGC [Mat - Exclusion 4 - Mod of JL - D17] (puzzle: Exclusion 4) | – | – | 14 nM | – | – | –
AAAAAAAACAAGCUUAGGGACAUGAGGAUCACCCAUGUUCGUCUUAUAAAAAUAAAAAUAAAAAACAAAAAAUAAAA [Sensor V2: 53] (Eterna round: R96, puzzle: Sensor v2, turn-off variant) | 128 nM | – | – | – | 22.5 nM | 24.1 nM
UUUUAACAUGAGGAUCACCCAUGUGAGGAUAUCGAAAUUUAUAUUAAUAUUAAUAAAACGAGAAGGCACAUUUU [JMF 4] (puzzle: Exclusion 1) | – | – | 75.1 nM | – | – | –
AUUAUAUAGAUAGGAUAUUGAUUAUUAUUUUAACAUGAGGAUCACCCAUGUAGCCUUAUGUAUAACAAGAAGGAUCAUUUAUUA [Title] (Eterna round: R96, puzzle: Exclusion NG 2) | 137 nM | – | – | – | – | –
UACAUGAGGAUCACCCAUGUUUUGUCGUGUUUGGUACCCGUUUAGGAUAUCGUGUUAUUGGACCGCGAGAAGGAGAGUAUCUUU [Excl-NG3-LRO07] (Eterna round: R96, puzzle: Exclusion NG 3) | 25.3 nM | – | – | – | 31.8 nM | 33.3 nM
AAUAACAAGUUGAUCCUUCACAUGAGGAUCACCCAUGUGCUCGUCUUGUAAAGUACUAUCACGAAAGUGAUAGUACA (Eterna round: R97, puzzle: Sensor, turn-off variant 1) | – | – | – | – | 256 nM | 249 nM
CCACGACAUGAGGAUCACCCAUGUGAGGAUAUGACCUGAAAAGCGUGAGCAGUUUGUAUCAGAAGGCGCGUAGG [salish99_ex1_r4_067] (Eterna round: R97, puzzle: Exclusion 1) | – | – | – | – | 35.9 nM | 44.2 nM
AAACCCUGAGGAUAUACAUAACAACAAAGCCUCACGUGCCAACAUGAGGAUCACCCAUGUAGAAGGCGGGCCAA [Mod R3 Insanara 14 - Jieux - Exclusion 2] (Eterna round: R97, puzzle: Exclusion 2) | – | – | – | – | 37.3 nM | 15.1 nM
GAUACACAUGAGGAUCACCCAUGUGAGGAUAUGCGUACGUUGUCCGUAGGCGACGUGCGCAGAAGGCGCAAAGG [Mat - Mod of JL D97] (puzzle: Exclusion 1) | – | 85.1 nM | 41.3 nM | 86 nM | – | –
CAUCCACAUGAGGAUCACCCAUGUCAGGAUAUUGUACAAACCCAAUCAUAUUGGGCGUCAAGAAGGGACAUUCU [EX1 B.5] (Eterna round: R97, puzzle: Exclusion 1) | – | – | – | – | 22.8 nM | 12.4 nM
CUUAAACAUGAGGAUCACCCAUGUCAGGAUAUGAUACUAUGUACUUCGGUACAUAGUAUCAGAAGGGAUAUGAA [Ex1-3: 64] (puzzle: Exclusion 1) | – | – | 43.1 nM | – | – | –
UGAUUGUUUACCAGGUUAUACAUGAGGAUCACCCAUGUAGAUCCUACGUGCGCGUUGUACCGCUCGUCUUAUUCCCA [Sensor-V1 #78] (Eterna round: R97, puzzle: Sensor, turn-off variant 1) | – | – | – | – | 18.3 nM | 18.9 nM
CAUGGAUGUGAGCCGCAUUACAUGAGGAUCACCCAUGUCAACAAGCUUUUUGCUUAUCUUACGCGGCGGCAUCAAAA [Enisusti] (puzzle: Sensor v3, turn-off variant 1) | – | 13.4 nM | 11.8 nM | 9.39 nM | – | –
CAUAAGUGAGGAUAUCCUGGCCCUAUGCGUUAGGCGCGCUAGGAGAAGGCACAUGAGGAUCACCCAUGUCUCUC [Eternabot (L1) Solution 21] (Eterna round: R97, puzzle: Exclusion 4) | – | – | – | – | 76.6 nM | 29.7 nM
AGAAACUCAAGAGGAUAUCACAUGAGGAUCACCCAUGUAUAGCGCGCUAUGCUAGUCCUCGUAUUUGAGAAGGUUUGAUAAAUG [Mat - Exclusion NG 2 - Mod of JL - D78] (Eterna round: R96, puzzle: Exclusion NG 2) | 14.2 nM | – | – | – | 16.2 nM | 16.9 nM
AAAUCACAUGAGGAUCACCCAUGUGAGGAUAUGAUACUAUGUACUUCGGUACAUAGUAUCAGAAGGCAUAUGGA [Ex1-3: 32] (puzzle: Exclusion 1) | – | – | 22.9 nM | – | – | –
UGUUGUUCCGAAGGAUAUGUAUGAGGAUCACCCAUAAGAGUUGAUGUACCAUGAGGAUCACCCAUGUAGAAGGUCGGGUUAACU [pwkr exNG2 2xF5 1xFMN.20] (Eterna round: R96, puzzle: Exclusion NG 2) | 52.6 nM | – | – | – | 200 nM | 101 nM
GUCUUACAUGAGGAUCACCCAUGUGAGGAUAUGGAUUCGCUGGCCGUAGCCAGUGGAUCCAGAAGGCGCAUGAU [JL-ex1-4.04] (Eterna round: R97, puzzle: Exclusion 1) | – | – | – | – | 50.9 nM | 39.2 nM
CAAUAAAAGCGAGGAUAUCCGUAUAAAGAUACAGGAGAAGGUGCGGGUACUCCUCACAUGAGGAUCACCCAUGUAAGAAAUAAA [Erxeraso] (Eterna round: R96, puzzle: Exclusion NG 1) | 33.7 nM | – | – | – | 67.4 nM | 57.1 nM
CCGAAGUCCUGCGGAGUUCACAUGAGGAUCACCCAUGUAGGCGAGGAUAUUUAUGAUACAUGAGUAAAGAAGGCGUCUGGUAAA [Eternabot solution 26] (Eterna round: R96, puzzle: Exclusion NG 3) | 18.2 nM | – | – | – | 40.7 nM | 29.1 nM
